Test results taken from patent publication US9688764B2, “Methods of treating breast cancer by administering anti-human prolactin receptor (PRLR) antibodies” (REGENERON PHARMACEUTICALS, INC., priority 2013, dated 2017).

B1: H1H6975N-DM1 (conjugate)
VH: EVHLVESGGGLVQPGGSLRLSCAASGFTFSSYEMNWVRQTPGKGLEWISHISSRSVIIYYADSVKGRFTISRDNAKNSLFLQMNSLRAEDTAVYFCAGITIFGIPEYWGQGTLVTVSS
VL: EIVLTQSPATLSLSPGERATLSCRASQSVSSYFAWYQQKPGQAPRLLIYDASSRATGIPTRFSGSGSGTDFTLTISSLEPEDFAVYYCQQRSSWPITFGQGTRLEIK
B2: H1H6765P-DM1: anti-PRLR antibody H1H6765P conjugated to DM1 through an SMCC linker (conjugate)
VH: EVQLVESGGGVVRPGGSLRLSCVGSGFSFDDHGMNWVRQGPGKGLEWVSGFNWNGGSTNYAESVKGRFTISRDNARNSLFLQMNSLRAEDTALYYCVRGRSGWFNDAFDVWGPGTMVTVSS
VL: EIVLTQSPGTLSLSPGERATLSCRASQTINSNYLAWYRQKPGQTPRLLIYGTSSRATGIPDRFSGSGSGTDFSLTISRLEPEDFAVFYCQQYAGLPTFGPGTKVDIK
B3: H1H6782P-DM1: anti-PRLR antibody H1H6782P conjugated to DM1 through an SMCC linker (conjugate)
VH: EVQLVESGGGLVQPGRSLRLSCAASGFTFDDYAMHWVRQAPGKGLEWVSGIIWNSGHIGYGDSVKGRFTISRDNAKKSLYLQMNSLRAEDTALYYCARDSGRYQSYFDYWGQGTLVTVSS
VL: DIQMTQSPSTLSASVGDRVTITCRASHIISSWLAWYQQKPGKAPKVLIFKASSLESGVPSRFSGSGSGTEFTLTISSLQPDDFATYYCQQYNTYSRTFGQGTKVEIK

Key:
[1] = tested on: PC3/PRLR tumors; assay: Tumor growth inhibition in xenograft-bearing mice; type: in vivo, SCID mice; conditions: for Average Tumor Growth Inhibition (%): SCID mice
From the text: (§1) Briefly, 20×10^6 MCF7/PRLR cells (ATCC HTB-22 transfected with full length hPRLR as previously described) were implanted subcutaneously into the left mammary fat pad of female NCr nude mice. In other studies, 10×10^6 PC3/PRLR (ATCC CRL-1435 transfected with full length hPRLR as previously described) were implanted subcutaneously into the left flank of male SCID mice. Additionally, 10×10^6 parental T47D (ATCC HTB-133) or […] T47D#11 cells (ATCC HTB-133 serially passaged in vivo as described below) were subcutaneously implanted into the left flank of female CB17 SCID mice. All mice were obtained from Taconic (Hudson, N.Y.). Each bolus of cells was supplemented with a 90-day estrogen release pellet (1.7 mg/pellet; Innovative Research America, Sarasota Fla.). Once tumors had reached an average volume of 250 mm^3, mice were randomized into groups of seven and dosed with anti-PRLR antibody-drug conjugates of the invention or control reagents. Control reagents included PBS vehicle, free methyl-disulfide DM1 (DM1-SMe) and isotype Control 1-DM1.
(§2) In multi-dose studies, mice were dosed once a week for a total of three weeks with tumor volumes and body weights being monitored twice weekly throughout the study. Test ADCs were dosed at 5 and/or 15 mg/kg in the multi-dose studies. In single-dose studies, mice received a single dose of test ADC, and tumor volumes and body weights were monitored twice weekly throughout the study. Test ADCs were dosed at 1, 2.5, 5, and 15 mg/kg in the single-dose studies. Average tumor size as well as tumor growth inhibition relative to the vehicle treated group were calculated for each group. Tumors were measured with calipers twice a week until the average size of the vehicle group reached 1000 mm^3. Tumor size was calculated using the formula (length×width^2)/2. Tumor growth inhibition was calculated according to the following formula: (1−((Tfinal−Tinitial)/(Cfinal−Cinitial)))*100, where T (treated group) and C (control group) represent the mean tumor mass on the day the vehicle group reached 1000 mm^3. […] Results are summarized in Tables 21-25 (multi-dose) and Table 26 (single dose). (NT=not tested in the particular experiment shown).

[2] = tested on: PC3/hPRLR cells; assay: Cell viability (cell kill) assay; type: cell-based, human; conditions: PC3/PRLR; Table 11; 3 days
Method in brief: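 PC3 and PC3/hPRLR (lipofection-generated, FACS-enriched for PRLR) cells exposed 3 days to anti-PRLR ADCs or free DM1-SMe, 500 nM to 5 pM. Viability by CCK8 OD450, digitonin background subtracted, as % of untreated; IC50 from four-parameter fit of 10-point curves.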

[3] = tested on: MCF7 (MCF7/ATCC) cells; assay: Cell viability (cell kill) assay, nuclear counts; type: cell-based; conditions: MCF7; Table 12; 3 days
Method in brief: (§3)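 Anti-PRLR ADCs or free DM1-SMe were added at 500 nM to 5 pM final to cells seeded overnight and were incubated 3 days. MCF7 lines were fixed with 4% formaldehyde plus Hoechst 33342, and nuclei were counted by imaging, with digitonin […] background subtracted. Viability was expressed as % of untreated cells, and IC50 was obtained from a 4-parameter fit of a 10-point curve.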

[4] = tested on: PC3 cells; assay: Cell viability (cell kill) assay; type: cell-based; conditions: Table 11, 3 days
From the text: PRLR-overexpressing cells, including HEK293, PC3, MCF7 and NCI-N87, were generated to assess the ability of anti-PRLR conjugated antibodies to reduce cell viability. For comparative purposes, PC3 and T47D cells with overexpressed ErbB2 were also generated, as well as an MCF7 cell line over-expressing both hPRLR and hErbB2. Briefly, Lipofectamine® 2000-mediated transfection methodology was utilized to generate HEK293 cells expressing human PRLR (HEK293/hPRLR) or human ErbB2 (HEK293/hErbB2). Lipofectamine LTX with Plus Reagent was used to generate PC3 cells expressing human PRLR (PC3/hPRLR) or human ErbB2 (PC3/hErbB2). Lentiviral-mediated transduction was utilized to generate MCF7 cells expressing human PRLR (MCF7/hPRLR), NCI-N87 cells expressing human PRLR (NCI-N87/hPRLR), T47D cells over-expressing human ErbB2 (T47D/hErbB2), and MCF7 cells expressing both human PRLR and human ErbB2 (MCF7/hPRLR/hErbB2). All lines were selected for at least two weeks in complete growth media plus appropriate selection reagents. Stably expressing populations were enriched for PRLR expression via FACS using the anti PRLR antibody Control I.
Next, the ability of anti-PRLR-DM1 antibody-drug conjugates (i.e., anti-PRLR antibodies conjugated to DM1 via a non-cleavable linker [SMCC]) to reduce cell viability was determined using in vitro cell based assays. Cells were seeded in PDL-coated 96 well plates at 1500 to 10000 cells per well in complete growth media and allowed to grow overnight. For cell viability curves, ADCs or free DM1 (as the methyl disulfide derivative DM1-SMe) were added to the cells at final concentrations ranging from 500 nM to 5 pM and incubated for 3 days. The 293, PC3 and T47D cells were incubated with CCK8 (Dojindo, Rockville, Md.) for the final 1-3 hours and the absorbance at 450 nm (OD450) was determined on a Flexstation3 (Molecular Devices, Sunnyvale, Calif.). MCF7 cells were treated with Hoechst 33342 nuclear stain while being fixed with 4% formaldehyde. Images were acquired on the ImageXpress micro XL (Molecular Devices, Sunnyvale, Calif.) and nuclear counts were determined via Columbus image analysis software (Perkin Elmer, Shelton, Conn.). Background OD450 values (PC3, 293, and T47D) or nuclear counts (MCF7) from digitonin (40 nM) treated cells was subtracted from all wells and viability was expressed as a percentage of the untreated controls. IC50 values were determined from a four-parameter logistic equation over a 10-point response curve (GraphPad Prism).
Finally, the potency of anti-PRLR antibodies conjugated to DM1 via the non-cleavable linker SMCC was compared to the cell killing potency of anti-PRLR antibodies conjugated to MMAE via the cleavable linker: mc-vc-PAB (available from Concortis, San Diego, Calif.). Cells used in this experiment were PC3, PC3/hPRLR, MCF7/ATCC and MCF7/PRLR.

[5] = tested on: MCF7/PRLR tumors; assay: Tumor growth inhibition in xenograft-bearing mice; type: in vivo, NCr nude mice; conditions: for Final Tumor size mm^3 (mean ± SEM): MCF7/PRLR tumors TRIAL #2, NCr Nude mice, Day 63
From the text: as §1, §2

[6] = tested on: HEK293 (293) cells; assay: Cell viability (cell kill) assay; type: cell-based; conditions: 293; Table 11; 3 days
Method in brief: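 Anti-PRLR–DM1 ADCs (non-cleavable SMCC linker) or free DM1-SMe, 500 nM to 5 pM for 3 days on parental or hPRLR-overexpressing lines. HEK293: CCK8 OD450; MCF7: Hoechst nuclear counts by imaging.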

[7] = tested on: T47D cells; assay: Cell viability (cell kill) assay; type: cell-based; conditions: T47D, Table 12, 3 days; for IC50: read-out: IC50
Method in brief: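 T47D cells grown overnight, then exposed 3 days to anti-PRLR ADCs (DM1 via non-cleavable SMCC linker, or other maytansinoid toxins) or free DM1-SMe, 500 nM to 5 pM. Viability by CCK8 OD450, digitonin background subtracted, as % of untreated; IC50 from 10-point four-parameter fit. PRL (15 nM) co-incubation tested separately.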

[8] = tested on: MCF7/hPRLR (MCF7/PRLR) cells; assay: Cell viability (cell kill) assay, nuclear counts; type: cell-based, human; conditions: Table 12, 3 days
Method in brief: as §3

[9] = Conjugate characterization: protein and linker/payload concentrations, payload loading (UV, MALDI-TOF, SEC-HPLC, RP-HPLC); type: physicochemical; conditions: Anti-PRLR-SMCC-DM1 conjugates; Table 9
From the text: Selected anti-PRLR antibodies were conjugated to the maytansinoid DM1 through an SMCC linker using methods similar to those set forth in U.S. Pat. No. 5,208,020 and US Patent Application Publication No. 2010/0129314, the disclosures of which are incorporated by reference herein in their entireties. The conjugates were purified by size exclusion chromatography and sterile filtered. All starting materials and solvents were purchased commercially and used without purification, unless otherwise noted.
Protein and linker/payload concentrations were determined by UV spectral analysis and MALDI-TOF mass spectrometry. Size-exclusion HPLC established that all conjugates used were >95% monomeric, and RP-HPLC established that there was <0.5% unconjugated linker payload. Yields are reported in Table 8 and 9 based on protein. All conjugated antibodies were analyzed by UV for linker payload loading values according to Hamblett et al, 2004, Clinical Cancer Research 10(20):7063-7070, and by mass difference, native versus conjugated.

[10] = tested on: T47D#11 tumors; assay: Tumor growth inhibition in xenograft-bearing mice; type: in vivo, CB17 SCID mice; conditions: for Average Tumor Growth Inhibition (%): T47D#11 tumors, multi-dose 5 mg/kg, SCID mice, Day 66; for effect on T47D#11 tumor growth: multi-dose, 5 and 15 mg/kg
From the text: as §1, §2

| Molecule | % Kill [2] [%] | IC50 [2] [nM] | % Kill [3] [%] | IC50 [3] [nM] | % Kill [6] [%] | IC50 [6] [nM] | % Kill [7] [%] | IC50 [7] [nM] | % Kill [8] [%] | IC50 [8] [nM] | Final Tumor size mm^3 (mean ± SEM) ([5]; multi-dose 5 mg/kg) [mm^3] | Payload:Antibody Molar Ratio (MS) [9] | Average Tumor Growth Inhibition (%) [10] [%] | effect on T47D#11 tumor growth [10] | further results |
| --- | --- | --- | --- | --- | --- | --- | --- | --- | --- | --- | --- | --- | --- | --- | --- |
| B1 | 68 | 2.7 | 73 | 150 | 87 | 100 | 80 | 6.9 | 87 | 0.49 |  |  |  |  | Average Tumor Growth Inhibition (%) ([1]; PC3/PRLR tumors TRIAL #1, multi-dose 15 mg/kg, Day 63): 38%; effect on PC3/PRLR tumor growth ([1]; multi-dose, especially at 15 mg/kg): demonstrated inhibition of tumor growth; IC50 [4]: 200 nM; effect on MCF7/PRLR tumor growth ([5]; multi-dose trial 1, 5 and 15 mg/kg): potently inhibited MCF7/PRLR tumor growth |
| B2 | 70 | 0.57 | 68 | 150 | 86 | 100 | 78 | 1.63 | 84 | 0.18 | 90 ± 56 | 2.3 | 100 | potently inhibited tumor growth | Average Tumor Growth Inhibition (%) ([1]; PC3/PRLR tumors TRIAL #2, multi-dose 5 mg/kg, Day 55): 70%; % Kill [4]: 70% |
| B3 | 64 | 0.92 | 57 | 120 |  | 100 | 74 | 4.19 | 85 | 0.65 | 74 ± 34 | 2.8 | 90 | potently inhibited tumor growth | Average Tumor Growth Inhibition (%) ([1]; PC3/PRLR tumors TRIAL #2, multi-dose 15 mg/kg, Day 55): 85%; Final Tumor size mm^3 (mean ± SEM) ([5]; multi-dose 15 mg/kg): 0 ± 0 mm^3 |
